{"source": "IntAct's records for PubMed 20727515", "parents": {"B1": {"name": "ADP-ribosylation factor 6 (Homo sapiens), P62330 (parent)", "chain": "MGKVLSKIFGNKEMRILMLGLDAAGKTTILYKLKLGQSVTTIPTVGFNVETVTYKNVKFNVWDVGGQDKIRPLWRHYYTGTQGLIFVVDCADRDRIDEARQELHRIINDREMRDAIILIFANKQDLPDAMKPHEIQEKLGLTRIRDRNWYVQPSCATSGDGLYEGLTWLTSNYKS", "partner": "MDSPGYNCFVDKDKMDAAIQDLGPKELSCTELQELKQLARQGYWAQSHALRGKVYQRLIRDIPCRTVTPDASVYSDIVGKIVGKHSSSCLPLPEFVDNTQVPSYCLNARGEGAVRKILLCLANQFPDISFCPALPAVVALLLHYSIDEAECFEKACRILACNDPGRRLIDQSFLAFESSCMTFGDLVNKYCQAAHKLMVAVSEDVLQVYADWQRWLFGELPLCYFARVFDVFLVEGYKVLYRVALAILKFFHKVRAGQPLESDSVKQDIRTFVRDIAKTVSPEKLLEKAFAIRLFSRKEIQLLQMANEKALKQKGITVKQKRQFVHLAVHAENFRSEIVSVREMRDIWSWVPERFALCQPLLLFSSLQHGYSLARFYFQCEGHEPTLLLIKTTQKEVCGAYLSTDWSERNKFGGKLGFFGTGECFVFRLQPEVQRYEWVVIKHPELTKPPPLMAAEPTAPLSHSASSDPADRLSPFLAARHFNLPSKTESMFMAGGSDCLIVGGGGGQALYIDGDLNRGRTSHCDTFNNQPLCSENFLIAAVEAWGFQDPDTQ"}, "B2": {"name": "TBC1 domain family member 24 (Homo sapiens), Q9ULP9-2 (parent)", "chain": "B1 partner"}}}
{"variants_of": "B1", "conditions": "with TBC1D24, Q9ULP9-2"}
{"variant": "T27N", "effect of a mutation on the interaction": "increasing interaction strength"}
{"variant": "Q67L", "effect of a mutation on the interaction": "with no effect"}
{"variants_of": "B2", "conditions": "with arf6_human ARF6, P62330"}
{"variant": "MDSPGYNCFVDKDKMDAAIQDLGPKELSCTELQELKQLARQGYWAQSHALRGKVYQRLIRDIPCRTVTPDASVYSDIVGKIVGKHSSSCLPLPEFVDNTQVPSYCLNARGEGAVRKILLCLANQFPDISFCPALPAVVALLLHYSIDEAECFEKACRILACNDPGRRLIDQSFLAFESSCMTFGDLVNKYCQAAHKLMVAVSEDVLQVYADWQRWLFGELPLCYFARVFDVFLVEGYKVLYRVALAILKFFHKVRAGQPLESDSVKQDIRTFVRDIAKTVSPEKLLEKAFAIRLFSRKEIQLLQMANEKALKQKGITVKQKRQFVHLAVHAENFRSEIVSVREMRDIWSWVPERFALCQPLLLFSSLQHGYSLARFYFQCEGHEPTLLLIKTTQKEVCGAYLSTDWSERNKFGGKLGFFGTGECFVFRLQPEVQRYEWVVIKHPELTKPPPLMAAEPTAPLSHSASSDPADRLSPFLAARHFNLPSKTESMFMAGGSDCLIVGGGGGQVLYIDGDLNRGRTSHCDTFNNQPLCSENFLIAAVEAWGFQDPDTQ", "note": "[A509V]", "effect of a mutation on the interaction": "with no effect"}
{"variant": "MDSPGYNCFVDKDKMDAAIQDLGPKELSCTELQELKQLARQGYWAQSHALRGKVYQRLIRDIPCRTVTPDASVYSDIVGKIVGKHSSSCLPLPEFVDNTQVPSYCLNARGEGAVRKILLCLANQFPDISFCPALPAVVALLLHYSIHEAECFEKACRILACNDPGRRLIDQSFLAFESSCMTFGDLVNKYCQAAHKLMVAVSEDVLQVYADWQRWLFGELPLCYFARVFDVFLVEGYKVLYRVALAILKFFHKVRAGQPLESDSVKQDIRTFVRDIAKTVSPEKLLEKAFAIRLFSRKEIQLLQMANEKALKQKGITVKQKRQFVHLAVHAENFRSEIVSVREMRDIWSWVPERFALCQPLLLFSSLQHGYSLARFYFQCEGHEPTLLLIKTTQKEVCGAYLSTDWSERNKFGGKLGFFGTGECFVFRLQPEVQRYEWVVIKHPELTKPPPLMAAEPTAPLSHSASSDPADRLSPFLAARHFNLPSKTESMFMAGGSDCLIVGGGGGQALYIDGDLNRGRTSHCDTFNNQPLCSENFLIAAVEAWGFQDPDTQ", "note": "[D147H]", "effect of a mutation on the interaction": "decreasing interaction strength"}
